Results as given in patent US20030203869A1.

Columns and labels:
[1] = biological target: purified HLA-A2.1 molecules (human); assay: inhibition of binding of a labeled reference peptide to purified HLA-A2.1; conditions: remark: other sources report otherwise
[2] = biological target: purified HLA-A11 molecules (human); assay: inhibition of binding of a labeled reference peptide to purified HLA-A11

Row | Binder | IC50 [1] [nM] | IC50 [2] [nM]
1 | WLSLLVPFV (modifications not checked) [HBV Env 335 (HBV env 335-343) CTL epitope peptide …] | 5 | –
2 | TVYYGVPVWK (modifications not checked) [HIV Env 49 (HIV env 49-58) CTL epitope peptide …] | – | 4
